Tested on: type II diabetic mice (C57BL/Ks-Lepr db/db)
Experiment: In vivo bioactivity in type II diabetic mice
Details: 5 μg peptide s.c. twice a day, day 2, 4, 7, 10
Experimental: 11-week-old type II diabetic mice (C57BL/Ks-Lepr^db/db, Harlan) were treated with 5 μg peptide by subcutaneous injection twice a day at 9 a.m. and 5 p.m. (n=5 per group). Blood glucose was measured before (day 0) and after treatment with GLP^CM peptides (Day 2, 4, 7, 10) at 10 a.m. after an overnight fastening period. Data were presented in relation to blood glucose levels measured at day 0.
Best results were obtained with recombinant SEQ ID NO:6 (CM1) and synthetic SEQ ID NO:8 (CM3). In FIG. 9 (y-axis) the relative effect of the treatment is shown. Blood glucose at day ═O was set to 1. Untreated animals undergo continuous increase in blood glucose level over time, whereas animals treated with inventive peptides display grosso modo a continuous decrease of the blood glucose level over time.

B1: GLP-1(7-37)—IP2-RR-GLP2 (peptide)
chain: HAEGTFTSDVSSYLEGQAAKEFIAWLVKGRGRRDFPEEVAIAEELGRRHADGSFSDEMSTILDNLATRDFINWLIQTKITDKK
notes: 83 aa fusion peptide
- anti-hyperglycemia effect (blood glucose relative to day 0): anti-hyperglycemia effect

From US20100160556A1, “GLP-1 Fusion Peptides Conjugated to Polymer(s), Their Production and Use” (priority 2007, published 2010)
